Target: Avi-barnase (G34C/H102A), biotinylated, labeled with Alexa 488
Test: FRET or BRET; single-molecule FRET; donor-labeled barnase immobilised on PEG-coated glass via biotin-NeutrAvidin, acceptor-labeled barstar (20 nM) in solution; 10 mM Tris pH 7, 0 mM NaCl and higher (printed kA at 0 mM NaCl); 22 °C; illumination 0.3 μW; two-state maximum likelihood analysis with correction for acceptor photobleaching

kon: 1e+08 M⁻¹ s⁻¹
Substance: Cys-barstar, labeled with Alexa 647 (natural protein)
